Molecular target: His-tagged mouse Wnt3a (mouse) (UniProt P27467)
Assay: cell-based or functional assay

Chain of UniProt P27467 (P27467 19-352): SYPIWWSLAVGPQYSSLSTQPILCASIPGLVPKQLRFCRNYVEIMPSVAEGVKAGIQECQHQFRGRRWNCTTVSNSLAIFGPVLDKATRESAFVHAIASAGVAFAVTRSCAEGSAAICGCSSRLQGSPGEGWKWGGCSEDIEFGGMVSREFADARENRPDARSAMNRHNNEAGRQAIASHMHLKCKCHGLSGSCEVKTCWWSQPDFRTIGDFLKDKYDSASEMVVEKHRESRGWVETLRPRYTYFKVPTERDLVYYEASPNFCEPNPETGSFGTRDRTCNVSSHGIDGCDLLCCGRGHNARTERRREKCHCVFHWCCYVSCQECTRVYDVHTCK

## human FZC18 (from UniProt P39060 216-450)
  decrease in Wnt3a-induced CRT (beta-catenin-TCF-regulated transcription), TCF-responsive reporter in HEK293T and Huh-7 cells: > 80%

## human V3Nter (from UniProt P39060 24-497)
  decrease in Wnt3a-induced CRT (beta-catenin-TCF-regulated transcription), TCF-responsive reporter in HEK293T and Huh-7 cells: > 80%
